Experimental data reported in patent US20160297884A1 (Pfizer, published 2016).
Numbering of substitutions follows the chain as printed.

B1: C01_Rd4_6nM_C10 (antibody, V domains shown)
VH: EVQLLESGGGLVQPGGSLRLSCAASGFTFSSYPMSWVRQAPGKGLEWVSAIGGSGGSLPYADSVKGRFTISRDNSKNTLYLQMNSLRAEDTAVYYCARYWPMDSWGQGTLVTVSS
VL: EIVLTQSPGTLSLSPGERATLSCRASQSVSSVYLAWYQQKPGQAPRLLIYDASSRAPGIPDRFSGSGSGTDFTLTISRLEPEDFAVYYCQQYSTWPLTFGQGTKVEIK
notes: IgG
B2: C01_Rd4_6nM_C12 (antibody, V domains shown)
VH: B1 VH with S57W, L58S, P59Y
VL: B1 VL with R24W, A25L, V32T, T94E
notes: IgG; also called PC1C12
B3: C01_Rd4_6nM_C20 (antibody, V domains shown)
VH: B1 VH
VL: B1 VL with S31P, V32L, T94A, W95F
notes: IgG
B4: C01_Rd4_6nM_C24 (antibody, V domains shown)
VH: B1 VH
VL: B1 VL with S31P, V32E, T94V
notes: IgG
B5: C01_Rd4_6nM_C26 (antibody, V domains shown)
VH: B1 VH
VL: B1 VL with S31A, V32L, T94A
notes: IgG
B6: COMBO_Rd4_0.6nM_C02 (antibody, V domains shown)
VH: B1 VH
VL: B1 VL with Q27I, S28A, V32T, I49M, S54I, P57T, S93M, T94V
notes: IgG
B7: COMBO_Rd4_0.6nM_C04 (antibody, V domains shown)
VH: B1 VH with I51H, G52I, L58T, P59Y
VL: B1 VL with V32T, I49M, S54I, P57T, S93Q, T94S
notes: IgG
B8: COMBO_Rd4_0.6nM_C05 (antibody, V domains shown)
VH: B1 VH with P33A, S35N, L58T, P59Y, D103S, S104L
VL: B1 VL with V32T, I49M, S54I, P57T, S93M, T94S
notes: IgG
B9: COMBO_Rd4_0.6nM_C09 (antibody, V domains shown)
VH: B1 VH with S104I
VL: B1 VL with V32T, I49M, S54I, P57T, S93Q, T94E
notes: IgG
B10: COMBO_Rd4_0.6nM_C11 (antibody, V domains shown)
VH: B1 VH with I51A, G52L, L58T, P59Y, D103S, S104L
VL: B1 VL with S31V, V32R, I49M, S54I, P57T, S93G, T94S, L97I
notes: IgG
B11: COMBO_Rd4_0.6nM_C14 (antibody, V domains shown)
VH: B1 VH with S104I
VL: B1 VL with S31A, V32L, I49M, S54I, P57T, S93Y, T94G
notes: IgG
B12: COMBO_Rd4_0.6nM_C17 (antibody, V domains shown)
VH: B1 VH with S104I
VL: B1 VL with S28G, V29I, V32T, I49M, S54I, P57T, S93A, T94Y
notes: IgG
B13: COMBO_Rd4_0.6nM_C20 (antibody, V domains shown)
VH: B1 VH
VL: B1 VL with S31Y, V32L, I49M, S54I, P57T, S93M, T94E
notes: IgG
B14: COMBO_Rd4_0.6nM_C23 (antibody, V domains shown)
VH: B1 VH with I51L, G52F, L58T, P59Y
VL: B1 VL with A25P, S26R, V32S, I49M, S54I, P57T, S93Q, T94D
notes: IgG
B15: COMBO_Rd4_0.6nM_C29 (antibody, V domains shown)
VH: B1 VH with S104I
VL: B1 VL with V32S, I49M, S54I, P57T, S93Q, T94S
notes: IgG
B16: COMBO_Rd4_0.6nM_C30 (antibody, V domains shown)
VH: B1 VH with L58T, P59Y
VL: B1 VL with S31Y, V32M, S54I, P57T, S93K, T94S
notes: IgG
B17: COMBO_Rd4_6nM_C02 (antibody, V domains shown)
VH: B1 VH with P33A, S35N, G52S, G53D, S57F, L58V, P59Y
VL: B1 VL with V32S, I49M, S54I, P57T, S93E, T94F
notes: IgG
B18: COMBO_Rd4_6nM_C07 (antibody, V domains shown)
VH: B1 VH with D103A, S104D
VL: B1 VL with S28P, V29I, V32S, I49M, S54I, P57T, S93Q, T94G
notes: IgG
B19: COMBO_Rd4_6nM_C08 (antibody, V domains shown)
VH: B1 VH with G56T, S57W, L58T, P59Y
VL: B1 VL with V32S, I49M, S54I, P57T, S93Q, T94K
notes: IgG
B20: COMBO_Rd4_6nM_C09 (antibody, V domains shown)
VH: B1 VH with G52F, G53A, L58T, P59Y
VL: B1 VL with S31A, V32Q, I49M, S54I, P57T, S93Q, T94A
notes: IgG
B21: COMBO_Rd4_6nM_C10 (antibody, V domains shown)
VH: B1 VH with L58I, P59H
VL: B1 VL with V32S, L34W, A35G, I49M, S54I, P57T, S93Q, T94C
notes: IgG
B22: COMBO_Rd4_6nM_C11 (antibody, V domains shown)
VH: B1 VH with P59G
VL: B1 VL with S31P, V32L, I49M, S54I, P57T, S93K, T94A
notes: IgG

biological target: T1, Human BCMA (human, UniProt Q02223 1-54, limits assumed); assay: SPR, IgG immobilised, human BCMA analyte
T1 construct: also called huBCMA; B-cell maturation antigen
T1 sequence (looked up): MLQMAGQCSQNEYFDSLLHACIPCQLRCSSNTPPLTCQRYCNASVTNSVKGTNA
Method: (§1) All experiments were performed on a Bio-Rad Proteon XPR36 surface Plasmon resonance biosensor (Bio-Rad, Hercules, Calif.). […] The analysis temperature for the immobilization was 25° C. and the running buffer was HBS-T+(10 mM HEPES, 150 mM NaCl, 0.05% Tween-20, pH 7.4). Channels were activated in the analyte (horizontal) direction by injecting a mixture of 1 mM ECD and 0.25 mM NHS for 3 minutes at a flow rate of 30 μL/min. IgGs were immobilized on the activated spots by injecting them in the ligand (vertical) direction at 20 μg/mL in 10 mM Acetate pH 4.5 buffer for 1.5 minutes at […]. The activated surfaces were blocked by injecting 1M ethanolamine, pH 8.5 in the analyte direction for 3 minutes at 30 μL/min.
(§2) The analysis temperature for the BCMA binding analysis was 37° C. or 25° C. in a running buffer of HBS-T+, supplemented with 1 mg/mL BSA. A kinetic titration method was employed for the interaction analysis as described in Abdiche, et al. Human BCMA (huBCMA) or cynomolgus monkey BCMA (cyBCMA) analyte was injected in the analyte direction using a series of injections from low to high concentration. The concentrations used were 0.08 nM, 0.4 nM, 2 nM, 10 nM and 50 nM (a 5-membered series, with a 5-fold dilution factor and top concentration of 50 nM). The association time for a given analyte dilution was two minutes. Immediately after the 50 nM BCMA injection, dissociation was monitored for 2 hours.
(§3) The sensorgrams were double-referenced and fit to a 1:1 Langmuir with mass transport kinetic titration model in BIAevaluation Software version 4.1.1 (GE Lifesciences, Piscataway, N.J.).

Row | Binder | Kd [nM] | koff [s⁻¹] | kon [M⁻¹ s⁻¹]
1 | B1 | 0.162 | 0.00212 | 1.31e+07
2 | B2 | 0.535 | 0.00649 | 1.21e+07
3 | B3 | 0.459 | 0.00276 | 6.02e+06
4 | B4 | 0.467 | 0.00348 | 7.47e+06
5 | B5 | 0.09 | 0.00136 | 1.5e+07
6 | B6 | 0.022 | 0.000185 | 8.57e+06
7 | B7 | 0.015 | 0.000158 | 1.07e+07
8 | B8 | 0.115 | 0.000497 | 4.32e+06
9 | B9 | 0.031 | 0.000319 | 1.04e+07
10 | B10 | 0.207 | 0.00106 | 5.11e+06
11 | B11 | 0.038 | 0.000328 | 8.66e+06
12 | B12 | 0.092 | 0.000801 | 8.68e+06
13 | B13 | 0.019 | 0.000146 | 7.65e+06
14 | B14 | 0.028 | 0.00021 | 7.39e+06
15 | B15 | 0.019 | 0.000277 | 1.47e+07
16 | B16 | 0.065 | 0.000282 | 4.35e+06
17 | B17 | 0.422 | 0.000443 | 1.05e+06
18 | B18 | 0.035 | 0.000371 | 1.05e+07
19 | B19 | 0.019 | 0.000169 | 8.99e+06
20 | B20 | 0.016 | 0.000143 | 8.85e+06
21 | B21 | 0.018 | 9.72e-05 | 5.47e+06
22 | B22 | 0.018 | 0.000124 | 6.74e+06

biological target: T2, Cynomolgus monkey BCMA (cynomolgus monkey); assay: SPR, IgG immobilised, cyno BCMA analyte
T2 construct: Soluble analyte in SPR; also called cyBCMA; Cyno BCMA
Method: as §1, §2, §3

Row | Binder | Kd [nM] | koff [s⁻¹] | kon [M⁻¹ s⁻¹]
23 | B1 | 0.493 | 0.00219 | 4.44e+06
24 | B2 | 0.82 | 0.0037 | 4.51e+06
25 | B3 | 1.74 | 0.00625 | 3.6e+06
26 | B4 | 0.281 | 0.000891 | 3.17e+06
27 | B5 | 0.419 | 0.00199 | 4.75e+06
28 | B6 | 0.164 | 0.000494 | 3.01e+06
29 | B7 | 0.039 | 0.000137 | 3.52e+06
30 | B8 | 0.886 | 0.00172 | 1.94e+06
31 | B9 | 0.092 | 0.000346 | 3.77e+06
32 | B10 | 1.92 | 0.00423 | 2.2e+06
33 | B11 | 0.185 | 0.000645 | 3.48e+06
34 | B12 | 0.33 | 0.00101 | 3.06e+06
35 | B13 | 0.092 | 0.000284 | 3.09e+06
36 | B14 | 0.189 | 0.000531 | 2.81e+06
37 | B15 | 0.084 | 0.000336 | 4e+06
38 | B16 | 0.481 | 0.000808 | 1.68e+06
39 | B17 | 1.71 | 0.00136 | 795000
40 | B18 | 0.237 | 0.000934 | 3.94e+06
41 | B19 | 0.14 | 0.000428 | 3.06e+06
42 | B20 | 0.134 | 0.000318 | 2.37e+06
43 | B21 | 0.105 | 0.00016 | 1.52e+06
44 | B22 | 0.156 | 0.000412 | 2.64e+06
